Source: US20030100049

Target: Crosstide substrate peptide (UBI)

B1: MyrAkt3HA (full length human Akt3 fused to the myristylation signal from human Src at the N-terminus and to an HA-tag at the C-terminus) (protein)
chain: MGSNKSKPKDASQRRRSSDVTIVKEGWVQKRGEYIKNWRPRYFLLKTDGSFIGYKEKPQDVDLPYPLNNFSVAKCQLMKTERPKPNTFIIRCLQWTTVIERTFHVDTPEEREEWTEAIQAVADRLQRQEEERMNCSPTSQIDNIGEEEMDASTTHHKRKTMNDFDYLKLLGKGTFGKVILVREKASGKYYAMKILKKEVIIAKDEVAHTLTESRVLKNTRHPFLTSLKYSFQTKDRLCFVMEYVNGGELFFHLSRERVFSEDRTRFYGAEIVSALDYLHSGKIVYRDLKLENLMLDKDGHIKITDFGLCKEGITDAATMKTFCGTPEYLAPEVLEDNDYGRAVDWWGLGVVMYEMMCGRLPFYNQDHEKLFELILMEDIKFPRTLSSDAKSLLSGLLIKDPNKRLGGGPDDAKEIMRHSFFSGVNWQDVYDKKLVPPFKPQVTSETDTRYFDEEFTAQTITITPPEKCQQSDCGMLGNWKK
Kinase activity of anti-HA immunopellets (32P incorporation into substrate peptide, scintillation counting): Kinase activity present in CMV6[MyrAkt3HA] transfected samples was 20 times higher than that present in cells transfected with the control vector CMV6
